Experimental data published in the Immune Epitope Database (IEDB).

The sequences below were run against HLA-A*02:03 (assay: IEDB peptide-MHC binding, purified MHC/competitive/radioactivity; ≥ and ≤ were set here for values at or beyond the usual limits of such assays). Conditions: source organism: Hepacivirus hominis.
In the case of SISGVLWTV, the IC50 is reported as 18 nM.
For SLMAFTASI, the IC50 was 40 nM.

Same assay, conditions: source organism: Influenza A virus
RTFFLTQGA gave an IC50 of 158 nM.
In the case of SCINRCFYV, the IC50 is reported as 947 nM.
Sequence SCLENFRAYV has an IC50 of 55 nM.

Same assay, conditions: source organism: Mammarenavirus choriomeningitidis
In the case of RNHLRDLMGV, the IC50 is reported as 733 nM.

Same assay, conditions: source organism: Mammarenavirus lassaense
SIINHKFCNL was tested, and the IC50 was 562 nM.

Same assay, conditions: source organism: SARS-CoV1
SLCSCICTV was tested, and the IC50 was 4.2 nM.
SLPSYAAYA was tested, and the IC50 was 2.6 nM.

Same assay, conditions: source organism: Vaccinia virus WR
In the case of RTMPNESRV, the IC50 is reported as 100 nM.
RTNDLTALL gave an IC50 of 7.2 nM.
Work on RVFKKIMSI yielded an IC50 of 0.18 nM.
RVLYDEFVTI gave an IC50 of 178 nM.
RVSENTGMGM gave an IC50 of 89 nM.
Work on RVTTELNIV yielded an IC50 of 116 nM.
For SAFNDDGIYI, the IC50 was 68 nM.
With SIDHCSSFI the IC50 was 13 nM.
For SIDHCSSFIV, the IC50 was 772 nM.
Work on SIFVSTMPV yielded an IC50 of 6.6 nM.
In the case of SIISLFYTFA, the IC50 is reported as 28 nM.
In the case of SIPISELSRL, the IC50 is reported as 61 nM.
Work on SISEINEWL yielded an IC50 of 1.8 nM.
In the case of SISSVLTIL, the IC50 is reported as 4 nM.
SIVCIVAAV was tested, and the IC50 was 2.8 nM.
For SIYIAVANCV, the IC50 was 63 nM.
Sequence SLEATFIDV has an IC50 of 80 nM.
With SLSNLDFRL the IC50 was 1760 nM.
Sequence SLTTIGTIA has an IC50 of 3.7 nM.
Sequence SLVITYCLV has an IC50 of 201 nM.

Each sequence was assayed against HLA-A*02:01 in the same assay as above. Conditions: source organism: Hepacivirus hominis.
SISGVLWTV was tested, and the IC50 was 11 nM.
In the case of SLMAFTASI, the IC50 is reported as 106 nM.

Same assay, conditions: source organism: Influenza A virus
In the case of RTFFLTQGA, the IC50 is reported as 3110 nM.
SCINRCFYV showed an IC50 of 295 nM.
Work on SCLENFRAYV yielded an IC50 of 20 nM.

Same assay, conditions: source organism: Mammarenavirus choriomeningitidis
With RNHLRDLMGV the IC50 was 113 nM.

Same assay, conditions: source organism: Mammarenavirus lassaense
For SIINHKFCNL, the IC50 was 2120 nM.

Same assay, conditions: source organism: SARS-CoV1
SLCSCICTV gave an IC50 of 3.2 nM.
For SLPSYAAYA, the IC50 was 3.9 nM.

Same assay, conditions: source organism: Vaccinia virus WR
RTMPNESRV showed an IC50 of 1510 nM.
In the case of RTNDLTALL, the IC50 is reported as 357 nM.
RVFKKIMSI gave an IC50 of 80 nM.
RVLYDEFVTI showed an IC50 of 28 nM.
With RVSENTGMGM the IC50 was 766 nM.
In the case of RVTTELNIV, the IC50 is reported as 818 nM.
For SAFNDDGIYI, the IC50 was 35 nM.
SIDHCSSFI showed an IC50 of 246 nM.
Work on SIDHCSSFIV yielded an IC50 of 23 nM.
SIFVSTMPV gave an IC50 of 40 nM.
SIISLFYTFA gave an IC50 of 205 nM.
SIPISELSRL gave an IC50 of 2260 nM.
For SISEINEWL, the IC50 was 1.9 nM.
Sequence SISSVLTIL has an IC50 of 26 nM.
Sequence SIVCIVAAV has an IC50 of 5.3 nM.
Work on SIYIAVANCV yielded an IC50 of 1460 nM.
SLEATFIDV was tested, and the IC50 was 182 nM.
SLSNLDFRL showed an IC50 of 2880 nM.
For SLTTIGTIA, the IC50 was 133 nM.
Sequence SLVITYCLV has an IC50 of 174 nM.

The sequences below were run against HLA-A*02:06 in the same assay as above. Conditions: source organism: Hepacivirus hominis.
SISGVLWTV was tested, and the IC50 was 53 nM.
In the case of SLMAFTASI, the IC50 is reported as 743 nM.

Same assay, conditions: source organism: Influenza A virus
RTFFLTQGA was tested, and the IC50 was 1990 nM.
SCINRCFYV gave an IC50 of 226 nM.
SCLENFRAYV showed an IC50 of 162 nM.

Same assay, conditions: source organism: Mammarenavirus choriomeningitidis
RNHLRDLMGV was tested, and the IC50 was 107 nM.

Same assay, conditions: source organism: Mammarenavirus lassaense
Sequence SIINHKFCNL has an IC50 of 1020 nM.

Same assay, conditions: source organism: SARS-CoV1
Sequence SLCSCICTV has an IC50 of 5.8 nM.
Work on SLPSYAAYA yielded an IC50 of 8.7 nM.

Same assay, conditions: source organism: Vaccinia virus WR
In the case of RTMPNESRV, the IC50 is reported as 155 nM.
Sequence RTNDLTALL has an IC50 of 119 nM.
With RVFKKIMSI the IC50 was 75 nM.
Work on RVLYDEFVTI yielded an IC50 of 6.6 nM.
Work on RVSENTGMGM yielded an IC50 of 146 nM.
RVTTELNIV gave an IC50 of 46 nM.
With SAFNDDGIYI the IC50 was 41 nM.
Sequence SIDHCSSFI has an IC50 of 199 nM.
SIDHCSSFIV was tested, and the IC50 was 30 nM.
SIFVSTMPV showed an IC50 of 82 nM.
SIISLFYTFA gave an IC50 of 94 nM.
For SIPISELSRL, the IC50 was 78 nM.
Sequence SISEINEWL has an IC50 of 6.3 nM.
SISSVLTIL was tested, and the IC50 was 110 nM.
SIVCIVAAV showed an IC50 of 3.5 nM.
Work on SIYIAVANCV yielded an IC50 of 1000 nM.
In the case of SLEATFIDV, the IC50 is reported as 10 nM.
With SLSNLDFRL the IC50 was 1380 nM.
SLTTIGTIA showed an IC50 of 489 nM.
Work on SLVITYCLV yielded an IC50 of 270 nM.

Each sequence was assayed against HLA-A*68:02 in the same assay as above. Conditions: source organism: Hepacivirus hominis.
SISGVLWTV gave an IC50 of 5.5 nM.
SLMAFTASI gave an IC50 of 284 nM.

Same assay, conditions: source organism: Influenza A virus
In the case of RTFFLTQGA, the IC50 is reported as 514 nM.
SCINRCFYV was tested, and the IC50 was 1080 nM.
SCLENFRAYV was tested, and the IC50 was 224 nM.

Same assay, conditions: source organism: Mammarenavirus choriomeningitidis
RNHLRDLMGV gave an IC50 of 2820 nM.

Same assay, conditions: source organism: Mammarenavirus lassaense
With SIINHKFCNL the IC50 was 920 nM.

Same assay, conditions: source organism: SARS-CoV1
Sequence SLCSCICTV has an IC50 of 1670 nM.
Sequence SLPSYAAYA has an IC50 of 334 nM.

Same assay, conditions: source organism: Vaccinia virus WR
Sequence RTMPNESRV has an IC50 of 14 nM.
RTNDLTALL showed an IC50 of 13 nM.
For RVFKKIMSI, the IC50 was 170 nM.
In the case of RVLYDEFVTI, the IC50 is reported as 1640 nM.
Work on RVSENTGMGM yielded an IC50 of 66 nM.
With RVTTELNIV the IC50 was 481 nM.
In the case of SAFNDDGIYI, the IC50 is reported as 6.6 nM.
SIDHCSSFI was tested, and the IC50 was 27 nM.
Work on SIDHCSSFIV yielded an IC50 of 732 nM.
SIFVSTMPV was tested, and the IC50 was 10 nM.
In the case of SIISLFYTFA, the IC50 is reported as 51 nM.
In the case of SIPISELSRL, the IC50 is reported as 422 nM.
Work on SISEINEWL yielded an IC50 of 1.3 nM.
With SISSVLTIL the IC50 was 16 nM.
For SIVCIVAAV, the IC50 was 0.55 nM.
For SIYIAVANCV, the IC50 was 306 nM.
SLEATFIDV gave an IC50 of 23 nM.
For SLSNLDFRL, the IC50 was 23 nM.
For SLTTIGTIA, the IC50 was 323 nM.
SLVITYCLV gave an IC50 of 1400 nM.

What follows are sequences tested against HLA-A*02:02 in the same assay as above. Conditions: source organism: Hepacivirus hominis.
SISGVLWTV gave an IC50 of 8.8 nM.
With SLMAFTASI the IC50 was 19 nM.

Same assay, conditions: source organism: Influenza A virus
Work on RTFFLTQGA yielded an IC50 of 2010 nM.
SCINRCFYV gave an IC50 of 808 nM.
With SCLENFRAYV the IC50 was 90 nM.

Same assay, conditions: source organism: Mammarenavirus choriomeningitidis
With RNHLRDLMGV the IC50 was 428 nM.

Same assay, conditions: source organism: Mammarenavirus lassaense
SIINHKFCNL gave an IC50 of 247 nM.

Same assay, conditions: source organism: SARS-CoV1
In the case of SLCSCICTV, the IC50 is reported as 4 nM.
In the case of SLPSYAAYA, the IC50 is reported as 6.7 nM.

Same assay, conditions: source organism: Vaccinia virus WR
RTMPNESRV was tested, and the IC50 was 140 nM.
In the case of RTNDLTALL, the IC50 is reported as 3.7 nM.
RVFKKIMSI showed an IC50 of 350 nM.
In the case of RVLYDEFVTI, the IC50 is reported as 153 nM.
For RVSENTGMGM, the IC50 was 839 nM.
RVTTELNIV showed an IC50 of 2460 nM.
SAFNDDGIYI showed an IC50 of 35 nM.
In the case of SIDHCSSFI, the IC50 is reported as 631 nM.
Work on SIDHCSSFIV yielded an IC50 of 172 nM.
SIFVSTMPV gave an IC50 of 37 nM.
Work on SIISLFYTFA yielded an IC50 of 111 nM.
With SIPISELSRL the IC50 was 252 nM.
With SISEINEWL the IC50 was 0.13 nM.
For SISSVLTIL, the IC50 was 1.2 nM.
With SIVCIVAAV the IC50 was 3.9 nM.
SIYIAVANCV gave an IC50 of 534 nM.
For SLEATFIDV, the IC50 was 35 nM.
Sequence SLSNLDFRL has an IC50 of 1310 nM.
SLTTIGTIA was tested, and the IC50 was 1 nM.
SLVITYCLV was tested, and the IC50 was 1690 nM.
